Reference: PMC3532599, “Structural and Functional Integration of the PLCγ Interaction Domains Critical for Regulatory Mechanisms and Signaling Deregulation” (Structure(London, England:1993), 2012)
Residue numbers refer to the chain shown, from its start. Numbers in names are those of the source.

T1: PLCγ1 tandem nSH2-cSH2 domains, wild type (human, UniProt P19174 545-790)
T1 construct: PLCγ1 (phospholipase C gamma 1), tandem nSH2 and cSH2 domains with part of the cSH2-SH3 linker; residue numbering is for human PLCγ1; also called nSH2-cSH2^wt; nSH2cSH2^WT
T1 sequence: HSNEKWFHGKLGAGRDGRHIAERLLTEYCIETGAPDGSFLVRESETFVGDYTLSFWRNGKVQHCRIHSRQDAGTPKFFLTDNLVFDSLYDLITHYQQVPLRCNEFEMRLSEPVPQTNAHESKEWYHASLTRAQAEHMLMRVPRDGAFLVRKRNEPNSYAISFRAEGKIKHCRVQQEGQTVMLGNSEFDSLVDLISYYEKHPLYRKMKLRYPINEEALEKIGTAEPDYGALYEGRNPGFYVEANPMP

T2: PLCγ1 nSH2-cSH2 Y771F,Y775F (545–790) phosphorylated on Y783 (human, UniProt P19174 545-790, Y771F | Y775F, phosphotyrosine at 783)
T2 construct: PLCγ1, tandem nSH2-cSH2 with the cSH2-SH3 linker, residues 545-790; residue numbering is for human PLCγ1; also called nSH2-cSH2^Y771F,Y775F,pY783; nSH2cSH2^pY783
T2 sequence (looked up): T1 sequence with Y227F, Y231F

T3: PLCγ1 cSH2 domain, wild type (human)
T3 sequence (P19174 whole entry, looked up): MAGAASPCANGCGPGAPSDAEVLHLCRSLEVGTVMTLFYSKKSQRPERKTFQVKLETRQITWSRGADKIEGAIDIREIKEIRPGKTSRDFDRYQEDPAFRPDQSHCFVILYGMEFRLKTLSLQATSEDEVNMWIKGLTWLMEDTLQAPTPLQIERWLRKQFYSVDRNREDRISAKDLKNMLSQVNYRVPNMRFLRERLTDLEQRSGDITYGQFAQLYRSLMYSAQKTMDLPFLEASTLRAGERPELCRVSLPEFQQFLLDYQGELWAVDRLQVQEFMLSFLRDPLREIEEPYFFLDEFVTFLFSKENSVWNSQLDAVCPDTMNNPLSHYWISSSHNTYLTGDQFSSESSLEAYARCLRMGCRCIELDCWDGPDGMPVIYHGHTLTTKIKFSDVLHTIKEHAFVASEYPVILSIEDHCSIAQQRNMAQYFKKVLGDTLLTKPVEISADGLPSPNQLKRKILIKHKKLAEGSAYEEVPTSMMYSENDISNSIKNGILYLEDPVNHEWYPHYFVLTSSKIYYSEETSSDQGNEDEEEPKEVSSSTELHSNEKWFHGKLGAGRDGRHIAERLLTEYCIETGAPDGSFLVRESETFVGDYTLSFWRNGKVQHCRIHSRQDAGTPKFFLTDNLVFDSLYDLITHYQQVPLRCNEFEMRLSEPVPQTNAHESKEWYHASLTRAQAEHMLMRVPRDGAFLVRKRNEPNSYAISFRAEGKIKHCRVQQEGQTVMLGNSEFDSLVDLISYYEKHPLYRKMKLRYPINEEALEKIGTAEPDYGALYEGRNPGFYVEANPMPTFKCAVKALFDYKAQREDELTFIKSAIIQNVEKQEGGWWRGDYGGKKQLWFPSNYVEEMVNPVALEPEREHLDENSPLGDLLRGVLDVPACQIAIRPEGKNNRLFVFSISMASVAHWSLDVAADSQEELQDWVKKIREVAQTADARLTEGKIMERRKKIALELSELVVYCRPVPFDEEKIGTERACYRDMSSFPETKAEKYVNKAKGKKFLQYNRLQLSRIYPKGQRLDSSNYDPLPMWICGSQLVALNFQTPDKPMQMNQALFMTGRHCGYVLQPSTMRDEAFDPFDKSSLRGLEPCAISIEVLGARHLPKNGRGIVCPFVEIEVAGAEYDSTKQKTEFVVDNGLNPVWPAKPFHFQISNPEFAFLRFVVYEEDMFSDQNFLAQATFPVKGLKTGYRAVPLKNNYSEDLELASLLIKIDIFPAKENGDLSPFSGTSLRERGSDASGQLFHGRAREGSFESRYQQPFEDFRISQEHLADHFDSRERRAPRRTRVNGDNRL

B1: FGFR1-1p kinase domain (pY766) (domain or fragment, UniProt P11362 458-774, looked up)
chain: AGVSEYELPEDPRWELPRDRLVLGKPLGEGCFGQVVLAEAIGLDKDKPNRVTKVAVKMLKSDATEKDLSDLISEMEMMKMIGKHKNIINLLGACTQDGPLYVIVEYASKGNLREYLQARRPPGLEYCYNPSHNPEEQLSSKDLVSCAYQVARGMEYLASKKCIHRDLAARNVLVTEDNVMKIADFGLARDIHHIDYYKKTTNGRLPVKWMAPEALFDRIYTHQSDVWSFGVLLWEIFTLGGSPYPGVPVEELFKLLKEGHRMDKPSNCTNELYMMMRDCWHAVPSQRPTFKQLVEDLDRIVALTSNQEYLDLSMPLD
modifications: phosphotyrosine at 766
notes: fibroblast growth factor receptor 1 (FGFR1), kinase domain with the C-terminal tail holding pY766; see the Supplemental Experimental Procedures
B2: PLCγ1 PLC-core (residues 13−1215, Δ488–933, H335A) (domain or fragment)
chain: GPGAPSDAEVLHLCRSLEVGTVMTLFYSKKSQRPERKTFQVKLETRQITWSRGADKIEGAIDIREIKEIRPGKTSRDFDRYQEDPAFRPDQSHCFVILYGMEFRLKTLSLQATSEDEVNMWIKGLTWLMEDTLQAPTPLQIERWLRKQFYSVDRNREDRISAKDLKNMLSQVNYRVPNMRFLRERLTDLEQRSGDITYGQFAQLYRSLMYSAQKTMDLPFLEASTLRAGERPELCRVSLPEFQQFLLDYQGELWAVDRLQVQEFMLSFLRDPLREIEEPYFFLDEFVTFLFSKENSVWNSQLDAVCPDTMNNPLSHYWISSSANTYLTGDQFSSESSLEAYARCLRMGCRCIELDCWDGPDGMPVIYHGHTLTTKIKFSDVLHTIKEHAFVASEYPVILSIEDHCSIAQQRNMAQYFKKVLGDTLLTKPVEISADGLPSPNQLKRKILIKHKKLAEGSAYEEVPTSMMYSENDISDARLTEGKIMERRKKIALELSELVVYCRPVPFDEEKIGTERACYRDMSSFPETKAEKYVNKAKGKKFLQYNRLQLSRIYPKGQRLDSSNYDPLPMWICGSQLVALNFQTPDKPMQMNQALFMTGRHCGYVLQPSTMRDEAFDPFDKSSLRGLEPCAISIEVLGARHLPKNGRGIVCPFVEIEVAGAEYDSTKQKTEFVVDNGLNPVWPAKPFHFQISNPEFAFLRFVVYEEDMFSDQNFLAQATFPVKGLKTGYRAVPLKNNYSEDLELASLLIKIDIFPAK

Experiments:
[1] = biological target: PLCγ1 PLC-core (residues 13−1215, Δ488–933, H335A) (human) (UniProt P19174); test: ITC; cSH2 domain in the syringe, PLC-core in the cell
FGFR1 kinase domain = FGFR1 kinase domain (UniProt P11362); test: ITC, two-site fit; settings: reference: nonphosphorylated wild-type nSH2-cSH2; sites Y783
[2] = biological target: T1, PLCγ1 tandem nSH2-cSH2 domains, wild …; test: ITC; FGFR1-1p in the syringe, PLCγ1 construct in the cell; corrected for heat of dilution; fit to a two-site model (nSH2-cSH2 constructs) or a one-site model (γSA); settings: both partners purified
[3] = biological target: T2, PLCγ1 nSH2-cSH2 Y771F,Y775F (545–790) …; test: as above; settings: both partners purified
[4] = biological target: PLCγ1 specific array of domains (γSA), wild type (human); test: as above
[5] = biological target: T3, PLCγ1 cSH2 domain, wild type (human); test: NMR titration; 15N-labelled spPH, nSH2 or cSH2 domain observed by 1H-15N HSQC, unlabelled PLC-core (H335A) added up to 1:1; 25°C; for cSH2 then the phosphopeptide NPGFpYVEANPMP to 1:1:1

Molecule	Kd [1]	dH [1]	stoichiometry N [1]	also measured
PLCγ1 cSH2 domain N728D (domain or fragment)	49.5 µM	-1.43 kcal/mol	1.17	
PLCγ1 cSH2 domain S729Y (domain or fragment)	61.3 µM	-1.45 kcal/mol	1	
PLCγ1 cSH2 domain, wild type (domain or fragment)	23.9 µM	0.587 kcal/mol	1.14	
PLCγ1 nSH2-cSH2 tandem, 545-790 (from UniProt P19174) nSH2-cSH2 Y771F,Y775F phosphorylated at Y783				KD (FGFR1 kinase domain): weaker; reference 0.005 ± 0.001
B1				dH, first binding event [2]: -6.5 ± 0.183 kcal/mol; dH, second binding event [2]: 7.12 ± 0.23 kcal/mol; dH, first binding event [3]: -8.307 ± 0.025 kcal/mol; dH, second binding event [3]: 37.7 ± 5.13 kcal/mol; Kd [4]: 0.185 µM; dH [4]: -7.09 kcal/mol; stoichiometry N [4]: 1.03
B2				Kd [5]: 25 µM
